Experimental data: paper PMC2791216, “Phosphorylation of S776 and 14-3-3 Binding Modulate Ataxin-1 Interaction with Splicing Factors” (PLoS ONE, 2009)
Each block holds one molecule with its values, some of them ahead of it. Square brackets hold non-standard residues; d marks the D form. Ends that are not written are not given here. Peptide text beside a SMILES is read from it. pS = N[C@@H](COP(=O)(O)O)C(=O)O

Key:
14-3-3ζ [1] = molecular target: T1, 14-3-3ζ (Homo sapiens, UniProt P63104); test: ITC binding of Atx1 ULM peptides to 14-3-3ζ; conditions: 50 mM sodium phosphate buffer (pH 7.0), 150 mM NaCl, 5 mM DTT, 295 K, average of three measurements, n.b. = binding not detectable
T1 sequence (P63104 1-245): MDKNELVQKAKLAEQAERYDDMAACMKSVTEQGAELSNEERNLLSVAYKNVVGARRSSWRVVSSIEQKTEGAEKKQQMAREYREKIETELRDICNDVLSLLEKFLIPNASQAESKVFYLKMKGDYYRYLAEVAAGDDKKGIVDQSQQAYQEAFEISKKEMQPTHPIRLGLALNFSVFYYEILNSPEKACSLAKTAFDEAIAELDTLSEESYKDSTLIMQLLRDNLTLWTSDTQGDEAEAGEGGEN
Excerpt: Since S776 phosphorylated Atx1 binds also the 14-3-3 protein [17], we compared the affinity of this interaction. We used a peptide C-terminally extended as compared to the one previously designed to probe interaction with U2AF65 UHM so to include P778 and encompass the complete 14-3-3 ‘mode II’ recognition motif (Atx1_pS_ULM_PE, residues 769–779). We compared the affinities of this peptide with the non-phosphorylated version (Atx1_S_ULM_PE) and with the shorter Atx1_pS_ULM peptide. […] We chose to work with isoform ζ (14-3-3ζ) since it is present in high concentrations in the neuronal nucleus of all the major affected areas in SCA1 brains.
All the proteins were dialyzed against 50 mM sodium phosphate buffer (pH 7.0), 150 mM NaCl and 5 mM DTT. Solutions of 0.025–0.4 mM UHM proteins in the cell were titrated by injections of a total of 295 µl of 0.25–3.9 mM peptide in the syringe in 21 aliquots. The concentrations of the 14-3-3ζ and ATX1 ULM ligands were adjusted to 0.012–0.037 mM and 0.1–0.4 mM respectively. Data were processed with the software MicroCal Origin version 5.0 provided by the manufacturer. All dissociation constants were averages of three measurements.

U2AF65 UHM, 369-475 = U2AF65 UHM, 369-475 (UniProt P26368); test: NMR 15N-HSQC titration; conditions: reference: unphosphorylated Atx1 ULM peptide; sites S776
[2] = molecular target: T2, U2AF65 UHM (residues 369–475) (UniProt P26368 369-475); test: ITC; 20 mM sodium phosphate buffer (pH 6.4), 30 mM NaCl, 5 mM DTT; 295 K; protein in the cell, peptide in the syringe; conditions: both partners purified
T2 construct: U2AF65 (splicing factor U2AF 65 kDa subunit), UHM domain, residues 369-475; The His6-GST tags (vector pETM30) are TEV-cleavable; 15N-labelled for the NMR experiments, unlabelled for ITC; also called U2AF65 UHM domain; source: E. coli BL21 (DE3)pLysS, purified (Ni-NTA, SEC)

[3] = molecular target: T2, U2AF65 UHM (residues 369–475); test: ITC; 50 mM sodium phosphate buffer (pH 7.0), 150 mM NaCl, 5 mM DTT; 295 K; protein in the cell, peptide in the syringe; single-site model; averages of three measurements; conditions: both partners purified
14-3-3ζ [4] = molecular target: T3, 14-3-3ζ (UniProt P63104 1-245); test: as above; conditions: both partners purified
T3 construct: 14-3-3 protein, isoform zeta; also called 14-3-3 isoform ζ
T3 sequence (looked up): T1 sequence (P63104 1-245)

[5] = molecular target: T4, SPF45 UHM (residues 301–401) (UniProt Q96I25 301-401); test: as above; conditions: both partners purified
T4 construct: SPF45, also known as RBM17, UHM domain, residues 301-401; The His6-GST tags (vector pETM30) are TEV-cleavable; also called RBM17 UHM; source: E. coli BL21 (DE3)pLysS, purified (Ni-NTA, SEC)
T4 sequence (looked up): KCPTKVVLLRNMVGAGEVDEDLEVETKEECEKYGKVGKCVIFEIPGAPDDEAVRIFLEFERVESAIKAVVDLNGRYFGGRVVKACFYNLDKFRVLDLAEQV

T2 sequence (P26368 369-475, one chain of several): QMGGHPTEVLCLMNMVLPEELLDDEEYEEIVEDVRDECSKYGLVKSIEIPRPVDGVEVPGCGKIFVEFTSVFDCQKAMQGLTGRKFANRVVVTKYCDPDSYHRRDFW
Chain of U2AF65 UHM, 369-475 (P26368 whole entry, looked up, the tested form may be a part, one chain of several): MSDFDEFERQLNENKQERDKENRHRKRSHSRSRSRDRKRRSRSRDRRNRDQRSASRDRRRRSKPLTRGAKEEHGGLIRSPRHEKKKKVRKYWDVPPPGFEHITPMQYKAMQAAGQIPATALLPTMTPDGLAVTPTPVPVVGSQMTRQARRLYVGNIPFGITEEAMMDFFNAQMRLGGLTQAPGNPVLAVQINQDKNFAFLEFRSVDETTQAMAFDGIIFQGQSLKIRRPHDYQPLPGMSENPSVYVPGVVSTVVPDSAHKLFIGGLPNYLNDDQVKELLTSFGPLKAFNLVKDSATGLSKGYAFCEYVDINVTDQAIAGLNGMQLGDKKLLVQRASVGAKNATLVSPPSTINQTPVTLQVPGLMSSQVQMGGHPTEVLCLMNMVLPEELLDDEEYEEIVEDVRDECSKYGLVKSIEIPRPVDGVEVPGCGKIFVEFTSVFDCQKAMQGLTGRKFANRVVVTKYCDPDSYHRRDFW

Molecule: ATRKRRWAAPE [Atx1_A_ULM_PE]
Kd, 14-3-3ζ (ITC) (14-3-3ζ [1]): n.b.

Molecule: Ataxin-1 (Atx1) 769-777 (from UniProt P54253) pS776 Atx1 ULM peptide
binding against the reference (U2AF65 UHM, 369-475): same

B3: Atx1_S_ULM_PE (peptide)
peptide: ATRKRRWSAPE
notes: Ataxin-1 (Atx1), residues 769-779; source: synthetic peptide; bought: Pepceuticals Limited
Kd [3]: 9.2 ± 0.3 µM
Kd [5]: 23.4 ± 1.5 µM

B4: Atx1_A_ULM_PE (peptide)
peptide: ATRKRRWAAPE
notes: also called S776A-mutated peptide; S776A mutant peptide; source: synthetic peptide; bought: Pepceuticals Limited
Kd [3]: 8.9 ± 0.4 µM
Kd [5]: 22.5 ± 0.6 µM

B5: Atx1_D_ULM_PE (peptide)
peptide: ATRKRRWDAPE
notes: also called S776D peptide; S776D mutant peptide; source: synthetic peptide; bought: Pepceuticals Limited
Kd [3]: 6.4 ± 0.7 µM
Kd [5]: 0.9 ± 0.07 µM

Next, values leading:

Kd, 14-3-3ζ (ITC) (14-3-3ζ [1]): n.b. ^c
Molecule: ATRKRRWSAPE [Atx1_S_ULM_PE]

Kd, 14-3-3ζ (ITC) (14-3-3ζ [1]): n.b.
Molecule: ATRKRRWDAPE [Atx1_D_ULM_PE]

Kd (14-3-3ζ [1]): 0.4 ± 0.03 µM
Molecule: C[C@H](N)C(=O)N[C@H](C(=O)N[C@@H](CCCNC(=N)N)C(=O)N[C@@H](CCCCN)C(=O)N[C@@H](CCCNC(=N)N)C(=O)N[C@@H](CCCNC(=N)N)C(=O)N[C@@H](Cc1c[nH]c2ccccc12)C(=O)N[C@@H](COP(=O)(O)O)C(=O)N[C@@H](C)C(=O)N1CCC[C@H]1C(=O)N[C@@H](CCC(=O)O)C(=O)O)[C@@H](C)O [Atx1_pS_ULM_PE] (H-ATRKRRW[pS]APE-OH)

Kd [2]: 0.6 ± 0.08 µM
Kd [3]: 18.4 ± 0.7 µM
Kd (14-3-3ζ [4]): 1 ± 0.1 µM
B1: Atx1_pS_ULM (peptide)
peptide: ATRKRRW[pS]A
notes: Ataxin-1 (Atx1), residues 769-777, S776 phosphorylated; also called phosphorylated Atx1 ULM; source: synthetic peptide; bought: Pepceuticals Limited

Kd [3]: 35.8 ± 1.3 µM
Kd [5]: 40 ± 1.6 µM
B2: Atx1_pS_ULM_PE (peptide)
peptide: ATRKRRW[pS]APE
notes: Ataxin-1 (Atx1), residues 769-779, S776 phosphorylated; source: synthetic peptide; bought: Pepceuticals Limited
